Reference: patent publication US20090269779

Assays:
[1] = molecular target: human wild type galectin-3, P17931
[2] = molecular target: galectin-3 A33G mutant, P17931
[3] = molecular target: galectin-3 A33G and H64P double mutant, P17931
[4] = molecular target: galectin-3 H64P mutant, P17931
Sequence of galectin-3 H64P mutant, P17931 (P17931 whole entry, looked up, stated change not applied): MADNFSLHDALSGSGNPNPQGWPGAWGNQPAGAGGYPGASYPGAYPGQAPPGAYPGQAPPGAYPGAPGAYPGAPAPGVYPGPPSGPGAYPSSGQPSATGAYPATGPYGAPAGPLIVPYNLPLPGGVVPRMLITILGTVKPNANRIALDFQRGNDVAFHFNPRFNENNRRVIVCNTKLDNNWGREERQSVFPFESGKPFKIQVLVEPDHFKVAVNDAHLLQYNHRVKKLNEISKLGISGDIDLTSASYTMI

Sequence of human wild type galectin-3, P17931 (P17931 whole entry): as the sequence (P17931 whole entry, looked up, stated change not applied) above
Sequence of galectin-3 A33G mutant, P17931 (P17931 whole entry A33G): as the sequence (P17931 whole entry, looked up, stated change not applied) above, with A33G counted along it
Sequence of galectin-3 A33G and H64P double mutant, P17931 (P17931 whole entry, looked up, stated change not applied): as the sequence (P17931 whole entry, looked up, stated change not applied) above

B1: human recombinant pro-MMP-9 (protein)
chain: APRQRQSTLVLFPGDLRTNLTDRQLAEEYLYRYGYTRVAEMRGESKSLGPALLLLQKQLSLPETGELDSATLKAMRTPRCGVPDLGRFQTFEGDLKWHHHNITYWIQNYSEDLPRAVIDDAFARAFALWSAVTPLTFTRVYSRDADIVIQFGVAEHGDGYPFDGKDGLLAHAFPPGPGIQGDAHFDDDELWSLGKGVVVPTRFGNADGAACHFPFIFEGRSYSACTTDGRSDGLPWCSTTANYDTDDRFGFCPSERLYTQDGNADGKPCQFPFIFQGQSYSACTTDGRSDGYRWCATTANYDRDKLFGFCPTRADSTVMGGNSAGELCVFPFTFLGKEYSTCTSEGRGDGRLWCATTSNFDSDKKWGFCPDQGYSLFLVAAHEFGHALGLDHSSVPEALMYPMYRFTEGPPLHKDDVNGIRHLYGPRPEPEPRPPTTTTPQPTAPPTVCPTGPPTVHPSERPTAGPTGPPSAGPTGPPTAGPSTATTVPLSPVDDACNVNIFDAIAEIGNQLYLFKDGKYWRFSEGRGSRPQGPFLIADKWPALPRKLDSVFEERLSKKLFFFSGRQVWVYTGASVLGPRRLDKLGLGADVAQVTGALRSGRGKMLLFSGRRLWRFDVKAQMVDPRSASEVDRMFPGVPLDTHDVFQYREKAYFCQDRFYWRVSSRSELNQVDQVGYVTYDILQCPED
In the case of B1, the “cleavage of recombinant galectin-3 (Western blot)” value (“cleavage” below) [1] is reported as “The cleavage products were not seen when galectin-3 was incubated alone or with pro-MMPs”.

B2: activated human recombinant MMP-2 (protein)
chain: YNFFPRKPKWDKNQITYRIIGYTPDLDPETVDDAFARAFQVWSDVTPLRFSRIHDGEADIMINFGRWEHGDGYPFDGKDGLLAHAFAPGTGVGGDSHFDDDELWTLGEGQVVRVKYGNADGEYCKFPFLFNGKEYNSCTDTGRSDGFLWCSTTYNFEKDGKYGFCPHEALFTMGGNAEGQPCKFPFRFQGTSYDSCTTEGRTDGYRWCGTTEDYDRDKKYGFCPETAMSTVGGNSEGAPCVFPFTFLGNKYESCTSAGRSDGKMWCATTANYDDDRKWGFCPDQGYSLFLVAAHEFGHAMGLEHSQDPGALMAPIYTYTKNFRLSQDDIKGIQELYGASPDIDLGTGPTPTLGPVTPEICKQDIVFDGIAQIRGEIFFFKDRFIWRTVTPRDKPMGPLLVATFWPELPEKIDAVYEAPQEEKAVFFAGNEYWIYSASTLERGYPKPLTSLGLPPDVQRVDAAFNWSKNKKTYIFAGDKFWRYNEVKKKMDPGFPKLIADAWNAIPDNLDAVVDLQGGGHSYFFKGAYYLKLENQSLKSVKFGSIKSDWLGC
B2 was tested, and the “cleavage” value [2] was “Wild type and A33G galectin-3 produced a polypeptide of ~22 kDa consistent with cleavage at Ala62-Tyr63”, the “cleavage” value [1] was “Wild type and A33G galectin-3 produced a polypeptide of ~22 kDa consistent with cleavage at Ala62-Tyr63” and the “cleavage” value [3] was “Double mutation at A33G and H64P showed complete resistance to cleavage by both MMP-2 and MMP-9”. For the same protein, the “cleavage” value [4] was “The H64P mutant produced a ~27-kDa polypeptide upon incubation with MMP-2 indicating that it is cleaved at Gly32-Ala33”.

B3: activated human recombinant MMP-9 (protein)
chain: MRTPRCGVPDLGRFQTFEGDLKWHHHNITYWIQNYSEDLPRAVIDDAFARAFALWSAVTPLTFTRVYSRDADIVIQFGVAEHGDGYPFDGKDGLLAHAFPPGPGIQGDAHFDDDELWSLGKGVVVPTRFGNADGAACHFPFIFEGRSYSACTTDGRSDGLPWCSTTANYDTDDRFGFCPSERLYTQDGNADGKPCQFPFIFQGQSYSACTTDGRSDGYRWCATTANYDRDKLFGFCPTRADSTVMGGNSAGELCVFPFTFLGKEYSTCTSEGRGDGRLWCATTSNFDSDKKWGFCPDQGYSLFLVAAHEFGHALGLDHSSVPEALMYPMYRFTEGPPLHKDDVNGIRHLYGPRPEPEPRPPTTTTPQPTAPPTVCPTGPPTVHPSERPTAGPTGPPSAGPTGPPTAGPSTATTVPLSPVDDACNVNIFDAIAEIGNQLYLFKDGKYWRFSEGRGSRPQGPFLIADKWPALPRKLDSVFEERLSKKLFFFSGRQVWVYTGASVLGPRRLDKLGLGADVAQVTGALRSGRGKMLLFSGRRLWRFDVKAQMVDPRSASEVDRMFPGVPLDTHDVFQYREKAYFCQDRFYWRVSSRSELNQVDQVGYVTYDILQCPED
With B3 the “cleavage” value [2] was “Wild type and A33G galectin-3 produced a polypeptide of ~22 kDa consistent with cleavage at Ala62-Tyr63”, the “cleavage” value [1] was “Wild type and A33G galectin-3 produced a polypeptide of ~22 kDa consistent with cleavage at Ala62-Tyr63” and the “cleavage” value [3] was “Double mutation at A33G and H64P showed complete resistance to cleavage by both MMP-2 and MMP-9”. The “cleavage” value [4] was “MMP-9 did not cleave the H64P mutant”.

B4: human recombinant pro-MMP-2 (protein)
chain: APSPIIKFPGDVAPKTDKELAVQYLNTFYGCPKESCNLFVLKDTLKKMQKFFGLPQTGDLDQNTIETMRKPRCGNPDVANYNFFPRKPKWDKNQITYRIIGYTPDLDPETVDDAFARAFQVWSDVTPLRFSRIHDGEADIMINFGRWEHGDGYPFDGKDGLLAHAFAPGTGVGGDSHFDDDELWTLGEGQVVRVKYGNADGEYCKFPFLFNGKEYNSCTDTGRSDGFLWCSTTYNFEKDGKYGFCPHEALFTMGGNAEGQPCKFPFRFQGTSYDSCTTEGRTDGYRWCGTTEDYDRDKKYGFCPETAMSTVGGNSEGAPCVFPFTFLGNKYESCTSAGRSDGKMWCATTANYDDDRKWGFCPDQGYSLFLVAAHEFGHAMGLEHSQDPGALMAPIYTYTKNFRLSQDDIKGIQELYGASPDIDLGTGPTPTLGPVTPEICKQDIVFDGIAQIRGEIFFFKDRFIWRTVTPRDKPMGPLLVATFWPELPEKIDAVYEAPQEEKAVFFAGNEYWIYSASTLERGYPKPLTSLGLPPDVQRVDAAFNWSKNKKTYIFAGDKFWRYNEVKKKMDPGFPKLIADAWNAIPDNLDAVVDLQGGGHSYFFKGAYYLKLENQSLKSVKFGSIKSDWLGC
For B4, the “cleavage” value [1] was “The cleavage products were not seen when galectin-3 was incubated alone or with pro-MMPs”.
